Measurements reported in a protein production outcome set (Wang et al. 2014).

Assay: label from the status in PepcDB records

Row | Sequence | protein production
1 | MSRPDDIDVRPIAEAETADWIRALNTGFLRSPEVSEREVADRSSYLVPARTLGAFDNGRCVATFRSFPQELTAVGGASVPADAISNVTVTATHRRRGLLTRMMAQDLAAAKERGDVVATLIAAEYPIYGRYGFGAATHSTEWTIDVPRTGLDPRWSGPGDGGRIDLVDGEDVRKAGPELHERLRRTQPGAVSRDERWWQVHTGVVRLDRSPWTEPFYAVYRSASGEVEGLVSYECDDHWGDAKQPQNTAKVNWLIATTPAAERALWHYLCSIDWITKVRTGWRAPDDLLPHFLPDPRAARVTTHADWLWVRILDVVRALEARTYDGSGTLVLDVVDRHGLAGGRYRLTVGPDGAVCEPTTRDAGLTLDVGELAALWLGDASAVRLAALGRVREQQEGAASVADALLRTSGRPWCPDMF | not failed
2 | MSRQIFYMPFSLRFLFLLIIITIFGLGSLFLGVIVSAFMKIGFSAEDALLILFLSLLGSGINIPLTTLKSDIPVVKDNYIKFFGISYRIPTRQIVRNETLLAINVGGAVIPVLISAYLLTQFPSSLLLAGAGVAIVAIVTHSVARPIKGVGIATPALIPPLTSVLSAVLLTSIVHIPGCPAEPCRVIIAYTGGVLGTLIGADLLNLGKIKNLGAPVASIGGAGTFDGIFLSGFIALLLI | failed
3 | MSRSAFTALLLSCVLLALSMPARADDLPYRFGLGKADITGEAAEVGMMGYSSLEQKTAGIHMRQWARAFVIEEAASGRRLVYVNTDLGMIFQAVHLKVLARLKAKYPGVYDENNVMLAATHTHSGPGGFSHYAMYNLSVLGFQEKTFNAIVDGIVRSIERAQARLQPGRLFYGSGELRNANRNRSLLSHLKNPDIVGYEDGIDPQMSVLSFVDANGELAGAISWFPVHSTSMTNANHLISPDNKGYASYHWEHDVSRKSGFVAAFAQTNAGNLSPNLNLKPGSGPFDNEFDNTREIGLRQFAKAYEIAGQAQEEVLGELDSRFRFVDFTRLPIRPEFTDGQPRQLCTAAIGTSLAAGSTEDGPGPLGLEEGNNPFLSALGGLLTGVPPQELVQCQAEKTILADTGNKKPYPWTPTVLPIQMFRIGQLELLGAPAEFTVMAGVRIRRAVQAASEAAGIRHVVFNGYANAYASYVTTREEYAAQEYEGGSTLYGPWTQAAYQQLFVDMAVALRERLPVETSAIAPDLSCCQMNFQTGVVADDPYIGKSFGDVLQQPRESYRIGDKVTVAFVTGHPKNDLRTEKTFLEVVNIGKDGKQTPETVATDNDWDTQYRWERVGISASKATISWSIPPGTEPGHYYIRHYGNAKNFWTQKISEIGGSTRSFEVLGTTP | failed
4 | MSRSALSFAVFLAVVLSILGGMHAYLWLRLVRDPGLPEPWRRTGTVLLALLAVAIPVGMFSVRLASGWAARWLPVAAFTWLGLAFILFCAVAAIDLARLSAQLALFMGDWLRQVPDPPADPGRRLFVARAVAGGAVIAAGGSAALAFRSATGPAEIHEVAVRLDRLPPALSGLTIAQISDLHVGPAIREREVRRVVEQTNALRPDVVAITGDLVDGSVRELGHAVAELARLRARHGVFFVTGNHEYYSGVDAWVAELQRLGIRVLRNERVTVGDAGASIDLAGVDDWSSGQFGNGHGMNLPRALDGRDPDRSLVLLAHQPRAIGEAVRAGVELQLSGHTHGGQIFPFNLLVRAAYPYVKGLYPHAEGSAHGQIFVSRGTGYWGPPMRLGSPPEIARIVLT | failed
5 | MSSDAIETIETYLRPGAWVEDAAGPLYVRLRKRIEQGIDSGLLAKSAPLPAEREIASLTGLSRVTVRRAMQELVDRGIIVQRQGSGSFVADAAPRVEQSLSHLTSFTEDMERRGLNVTSEWLTRGVFIPSPEEVMALALSSGEQVARVARLRRAEGRPMAIERASLPTDILPDPELVSSSLYAVLERDGNRPVRALQRISAVNLGAEDAALLGVEPGTAGLRIIRTSYLPNRRVIEYTRSLYRADAYDFVAELRLGNS | failed
6 | MSSDDAWTAAALPDQSGRRVVVTGANSGLGFEATRAFARAGAHVVMACRSTERGEDARDDIVAELPGASLTVHELDLAALDSVAAFADWFTAEFDSLHVLANNAGVMAIPRSETADGFETQFGVNHLGHVALTAGLLGVLRRTSGETRVVTQSSGAHRRGRIDFEDLQHEAEYGKWEAYSQSKLANLLFAYELDRRLRAASASVTSVACHPGYAATNLQLRGPQAAGSRLRLLAMRAANALVGQSAEQGAWPLLYAATNPSIDGGEYIGPGGVLNMRGHPERQQPSARSRDEDTARRLWTVSADRTGVDFDLPDPA | failed
7 | MSSERLIYLPLGGAGEIGMNAYVYGYGKPDAERLIVVDMGVAFPDMDGSPGVDLILPDITWLQERRDRIEAVFVTHAHEDHVGAVAHTYEKLGAPVYARAFTANIARRKMAEHGHPEDAVHTVSPWPETVSAGPFKVSFLPISHSIPESSAMVIDTPEGRVIHSGDFKLDETPLVGEAFDPELWAEVSKEGVKALICDSTNVFSQHPGRSEASVGPEITNLVQSAEGMVVATTFASNVARVKTLADAGVRAGRSIVLMGRAMRRMIEAAAETGVLQDFPSVVSPEDARSIPRENLMLLVTGSQGERRAASAQLARGKYQGMEMKEGDLFPFSSKTIPGNEKGVIRIINAFSELGVDVVDDSSGLYHVSGHANRPDLERLSEIVNPQVVIPMHGEHRHLREHVKIAEQNGRTGVLAVNGMMVDLSGNQPKIAEYVETGRTYLDGTVQIGALDGVVRDRIRMALNGHVVVTLIVDEDDEPLGDPWCELKGLPETGRSKASLVDVLEADLGQWLGRADPKTMRDDDKLNEGLRRVVRQTSQDEIGKKPEVSVIVSRLS | failed
8 | MSSFFTGKDDSAVEELLSQAKDQYVLEQVAKINCSGFTDDTALPTNPETRLRRLKSLPVSRTDSVSSSPKKLLSHSNSMASHPEKKYRGNVSSVSSFSIQVGKSCPLDSSVEETQIFSKTKRNQSVKSRGGLGESSGSKRIGSSSSRFSCGNVSSTGSSSSRFSREGNISTATKTLKLPC | not failed
9 | MSSKPLLTLQELAAQNILRNEALAISALQYLPELFLPQLLKQAYDGNHLKVLRAIVSSWPFPRLPLGALKKRTPYLETQLQVVLEEVDKLLIQEVHPREYKLEVLDLRSVGQNYLNVWPGAMDDWLPKTTQTDPCCSKTVMTQPLKVLVDLQLNNRGQSRLFSYLVQWSDRRKGLLQLYCNKLQIWSPSQQNYRKLSQKVNLDYVETLGLHSSCSPSFLLNFAPYLRQMRNLRKLALSNIREEHIISPEKRRCIITRFTLQILKLESLQKLHLDAVCFLEGHLDQLLGSVKTSLDELAVTHCNLSVSEWSHFSEFPCVSQLQQLNLENVRLTGLSPEPLQVLLVKAGPTLVALDLEDCHLEDGQLYAILPALSKCFKLTKFSFYGNQISMLAMKDLLHHTASLIHLRLELYPVPQDSYDYHGTPLMQRMQQHCDELMNLLKTFRNPGRVFFGTDRCDQCCNRYIYNKTIMCNCRRSY | failed
10 | MSSKQHCVKLNDGHLIPALGFGTYKPKEVPKSKSLEAACLALDVGYRHVDTAYAYQVEEEIGQAIQSKIKAGVVKREDLFVTTKLWCTCFRPELVKPALEKSLKKLQLDYVDLYIMHYPVPMKSGDNDFPVNEQGKSLLDTVDFCDTWERLEECKDAGLVKSIGVSNFNHRQLERILNKPGLKYKPVCNQVECHLYLNQRKLLDYCESKDIVLVAYGALGTQRYKEWVDQNSPVLLNDPVLCDVAKKNKRSPALIALRYLIQRGIVPLAQSFKENEMRENLQVFGFQLSPEDMKTLDGLNKNFRYLPAEFLVDHPEYPFVEEY | not failed
11 | MSSLRHRRYVLGGLLAAIGVLAAAVLWNVVGTVFFAVTVAYVLYPARQRLVNRGVPRRVASGLLTAAAFLTVVVLLAPIAWTIFRQRGAILEFLNNLPDELPVEAFGFVVTIDVADLVDTTADTLQSIAISLAADAIFLALQLLMFALVLYGLLLRPNAVGRAAFRVTPSPYHDILVALHRRIAGTLYALYVIQAATAVITFPLALIVFYLLGYPDVFVLAVLAALLQFIPIVGPGMLAAGLAGHDVLVGMPHRAVGVIILGPLFVGLLPDLLVRPRLAASKAKLPASLYFVGFVGGVLTVGVIGIIAGPLVVALLVEAVNLLSERNQSAA | failed
12 | MSSMNANAENSESKPKSGNDPLDHEGGDSSAASEDPNKSKTVSSDDDLSETNKEKEEEDCEECWLSRYLKKGDCKDAFIEVDHCREVKDDGTNCRDARLKLITCMYTNVDYYGPFLAMQKEMRTQSLKELEQGEEAAAAAKKKEEEEETKGK | failed
13 | MSSPTRTSAKDRLSGVWALKGYKREWLRHDIVAGAALFALLVPAGMAYAQAAGLPPVTGLYATVVPLLVYAIVGPSRILVLGPDSALAPMIAAAIVPLAAGSSEKSVALAGLLAVLIGVIMLAGSALKLGTITGLLSKPIRLGYLNGIALLVLLSQLPAFFGIEADGDIWEKLAKVTTGVLGGGVNVTALLLGSGSLALIWIPRLLKWKVPGVLLAVVGSCVVTAVWGLNDDVKVTGVLPQGLPMPALGGIGWADALTLLPAAAGIALMAFADTGVLSQTLAAKEGKKVSGNREMAALGAANAATGLLGGFPISGSTSRTPVAVDAGAKSQMTGVVGSVLVLAFMLLAPGVTEYLPSATLAAVVIAAAIALADPAGVKRLLSLSRSESVVMLAAFLGVLTVGVLQGIVVAIALALLDFVRRAWDPYRTELGAEEGLPGYHDLERHPDGERIPGLLILRFDAPLFFGNGQVLAAFVREQLDEAPDETTDAITHVILAAEPITGIDTTALDDLVTLDEWLASKGVDLVFAELKGPVKDKLIHLGTAARFTPDHFFPTVGAAVRTLKNE | failed
14 | MSSQTILSVNNLSVSFTTNDGIVDAVKNVSFELQAGETLSIVGESGSGKSVSTNALMTLLPDNAIVHPDSSIMFEGESILDKTERQMQRIRGDRIGMIFQEPMTSLNPYMRVGIQVAEAMMCHRSVNQRKAKERVLELFDLVHLPNPQQAYDKYPHEFSGGQLQRIMIAMALINEPDILIADEPTTALDVTVQAEVLLLIKEIQAKMGMAILFITHDLGVVKHFADRVLVMCKGEVVEEGITEHLFSEPQHEYTKMLINSIPKGSKTPVDEKASELLNAEDIR | not failed
15 | MSSRLARFALSGYRIAGIAAYPFARPYLSYRAAKGKEDKRRRLERFGYASAERPRGPLVWFHAASVGETLALIPLIREIRKRDIFVLLTTGTVTSAELTRTRLGDDVIHQYVPLDIKIAVNRFLTYWAPDAAITAESEIWPVTMMELERRHIPQIRVNARLSDRSFDRWKARHDIAESLFSKLALVVAQSDLDAERFRDLGSWPVVISGNLKGDTDPPPCDEALLESYRKQVGNRKTWAAISTFDGEEKAAATVHAAIKSRNGQLTIIVPRHPERGDDVEAMLKGMNLSVARRSRNDVITPGTDIFLGDSIGEMGLYLRLTELAFVGRSLTAEGGQNPLEPAMLGCAVLSGAHVQNFREAYQKLIRAGGGRIIRDVEMLAKAVHYLLVNDNERYKMIDAGNRVIQDMRGALSSTVKALEPYINPLTVSAKLQPRSAIGSWLEHHHHHH | failed
16 | MSSSDGKLRYDGRVAVVTGAGAGLGREYALLFAERGAKVVVNDLGGTHSGDGASQRAADIVVDEIRKAGGEAVADYNSVIDGAKVIETAIKAFGRVDILVNNAGILRDRSLVKTSEQDWNLVNDVHLKGSFKCTQAAFPYMKKQNYGRIIMTSSNSGIYGNFGQVNYTAAKMGLIGLANTVAIEGARNNVLCNVIVPTAASRMTEGILPDILFNELKPKLIAPVVAYLCHESCEDNGSYIESAAGWATKLHMVRGKGAVLRPSLDDPVTIEYVKDVWSNVTDMSKAKHLGAIAEASGTLLEVLEKLKEGGGDAIEDAFEFNSKELITYALGIGASVKNAKDMRFLYENDADFAAIPTFFVLPGLLLQMSTDKLLSKALPNSQVDFSNILHGEQYLEIVDDLPTSGTLLTNGKVFDVMDKGSGAVVVTNSESFDESGRLLVRNQSTTFIVGAGKFGGKKDPIAGVVPLQPAPNRQPDATVQYTTSEDQAALYRLSGDKNPLHIDPQMALLAGFKTPILHGLCTLGFSVRAVLAQFADNNPALFKAVKVRFSGPVIPGQTLRVDLWKQGTRINFRTVVVETGKEVISGAYVDLKSSQAKL | failed
17 | MSSSDIFIGETIGTAVLILLGGGVCAAVTLKASKARNAGWLAITFGWGFAVLTAVYISAPLSGAHLNPAVTLALAIKDNDWSNVPTYWAGQLLGAMIGAALVWVAYYGQFHAHLTDHEIVGGPGAQATKTKAVEAQETGAGPVLGVFSTGPEVRNVVQNLATEIIGTVVLVLAILTQGLNDNGNGLGTIGALITSLVVVSIGLSLGGPTGYAINPARDLGPRIVHALLPLPNKGGSDWSYAWIPVVGPLIGAAIAAGIYNVAFA | failed
